Assays:
[1] = target: T1, human Trop-2-ECD-6His fusion protein (human, UniProt P09758 27-274); assay: BLI (Octet), antibody at 8 ug/ml, human Trop-2ECD-6His at 3.125-50 nM
T1 construct: Expressed in a human 293 cell line; also called huTrop-2; human Trop-2 antigen
T1 sequence: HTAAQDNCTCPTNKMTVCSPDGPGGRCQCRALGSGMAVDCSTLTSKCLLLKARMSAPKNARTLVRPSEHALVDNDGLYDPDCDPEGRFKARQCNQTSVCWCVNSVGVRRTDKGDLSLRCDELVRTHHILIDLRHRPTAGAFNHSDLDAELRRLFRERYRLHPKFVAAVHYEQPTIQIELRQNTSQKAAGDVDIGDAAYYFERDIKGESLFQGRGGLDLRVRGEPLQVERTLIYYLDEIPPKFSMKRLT
Method: The binding affinity of the purified anti-Trop-2 IgGs to human Trop-2 protein were determined by Octet system based on Bio-Layer Interferometry (BLI) technique. BLI is a layer of molecules attached to the tip of an optic fiber which creates an interference pattern at the detector, any change in the number of molecules bound causes a measured shift in the pattern. Octet system enables real-time analysis for determination of affinity and kinetics from biomolecular interactions in 96-well microplates. […] A1X4 or A1,2X4 antibody was diluted and added to the assigned wells at a final concentration 8 µg/ml. The plate was put in the Octet system and assay was started. The data was analyzed using the Octet Data Acquisition Software (fortebio data analysis 10.0) to calculate an association rate constant Kon, a dissociation rate constant Koff, and a dissociation constant Kd (Kd = Koff/Kon).

human EPCAM-His = target: T2, human EPCAM-His (human, UniProt P16422 24-265); assay: ELISA on coated antigen, one antibody dilution (concentration not given), detected by GAH-HRP, OD450nm
T2 construct: also called hEPCAM
T2 sequence (looked up): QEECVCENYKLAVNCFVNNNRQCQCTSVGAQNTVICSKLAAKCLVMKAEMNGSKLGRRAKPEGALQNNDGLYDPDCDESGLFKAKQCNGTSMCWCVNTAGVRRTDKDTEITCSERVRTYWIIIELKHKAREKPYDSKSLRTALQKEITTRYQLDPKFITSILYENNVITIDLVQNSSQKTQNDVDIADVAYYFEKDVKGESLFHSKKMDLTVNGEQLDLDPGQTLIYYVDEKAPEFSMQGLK
Method: (§1) The cross-reactivity of purified IgGs to the Trop-2 antigens from different species was tested by ELISA. In this experiment, a microtiter plate was coated overnight at 4° C. with 50 µL/well of 1 µg/mL human Trop-2ECD-6His, mouse Trop-2-His, cynomolgus Trop-2-His, human EPCAM-His, and a non-related protein. The plate was washed and blocked for 1 hr at 37° C., and then washed with wash buffer. Purified anti-Trop-2 antibodies appropriately diluted in PBS were added to wells and incubated for 1 hour at 37° C. After washing, bound antibodies were detected using HRP-conjugated goat-anti-human IgG antibody. Color development and absorbance at OD450 nm were read. A non-specific human IgG1 was included as a negative control, while hRS7 was used as a positive control.

mouse Trop-2-His = target: T3, mouse Trop-2-His (mouse, UniProt Q8BGV3 25-270); assay: as above
T3 sequence (looked up): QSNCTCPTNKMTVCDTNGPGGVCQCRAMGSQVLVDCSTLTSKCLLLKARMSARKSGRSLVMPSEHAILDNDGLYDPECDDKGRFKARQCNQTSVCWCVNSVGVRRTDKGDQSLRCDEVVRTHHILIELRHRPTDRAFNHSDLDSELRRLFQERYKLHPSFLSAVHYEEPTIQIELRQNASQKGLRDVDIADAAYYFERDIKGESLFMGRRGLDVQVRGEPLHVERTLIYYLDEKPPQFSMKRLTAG
Method: as §1

[2] = target: T4, human Trop-2 on Trop-2 positive cancer cells (human, UniProt P09758 27-323); assay: flow cytometry on MDA-MB-468 cells, MFI at 4 °C against the antibody concentration (about 400 to 10000 ng/ml); Kd (µg/ml) printed beside the legend
T4 construct: Endogenous Trop-2 of human tumour cell lines
T4 sequence (looked up): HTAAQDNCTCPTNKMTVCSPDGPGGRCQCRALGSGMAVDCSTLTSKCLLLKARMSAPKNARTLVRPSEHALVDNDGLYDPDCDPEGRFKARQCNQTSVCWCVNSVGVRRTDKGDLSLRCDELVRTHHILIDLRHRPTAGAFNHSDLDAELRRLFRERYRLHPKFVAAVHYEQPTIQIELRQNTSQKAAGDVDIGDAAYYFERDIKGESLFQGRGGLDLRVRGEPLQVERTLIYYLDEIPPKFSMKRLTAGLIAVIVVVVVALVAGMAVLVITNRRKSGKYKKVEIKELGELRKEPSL
Method: Internalizationi and degradation of anti-Trop-2 antibodies was measured by flow cytometry. In this study, fluorescent-conjugated secondary antibodies were used to detect the primary antibodies left on after internalization.
Next, either hRS7, or A1X4, or A1,2X4 antibody was added to cells in FACS buffer at concentrations of 400, 1000, 3000, or 10000 ng/ml, respectively, and incubated for 30 minutes at 4° C. After incubation, the cells were washed three times with FACS buffer to removed unbound antibody. The cells were then incubated at 37° C. with 5% CO₂ for antibody internalization. After 2 hours, the cells were dissociated with Trypsin and stained with fluorescent-conjugated goat anti-human IgG secondary antibodies for 30 minutes on ice in dark before being analyzed using Beckman flow cytometry system. The fluorescent intensity and cell binding percentage at each time point were analyzed by Beckman flow cytometric software. The amount of anti-Trop-2 antibodies internalized into cells at each concentration was determined using the following formula: % internalization rate = 100 × (MFI₄°C- MFI₃₇°C) / MFI₄°C

B1: humanized IgG A1,2X4 (antibody, V domains shown)
VH: QVQLQESGPGLVKPSETLSLTCTVSGFSLTSYGVNWIRQPPGKGLEWIGVMWAGGSTNYNSALMSRLTISKDTSKNQFSLKLSSVTAADTAVYYCARDENWDGAWFAYWGQGTLVTVSS
VL: DIVMTQSPDSLAVSLGERATINCKSSQSLLNSGTRKNYLAWYQQKPGQPPKLLISWASSRESGVPDRFSGSGSGTDFTLTISSLQAEDVAVYYCKQSYNLFTFGGGTKVEIKR
notes: Full-length IgG expressed in 293 cells; also called IgG HuA(1,2)/Lu(X4)
[1]
  Kd: 4.09 nM
  koff: 0.000844 s⁻¹
Human EPCAM-His
  binding result: no binding
Mouse Trop-2-His
  binding result: no binding
[2]
  Kd: 0.93 µg/mL
